Reference: the supplement of paper PMC11908140

B1: library; numbered along this chain (parent)
chain: MRKPRAAVGSGHRKQAASQEGRQKHAKNNSQAKPSACDGLARQPEEVVLQASVSSYHLFRDVAEVTAFRGSLLSWYDQEKRDLPWRRRAEDEMDLDRRAYAVWVSEVMLQQTQVATVINYYTGWMQKWPTLQDLASASLEEVNQLWAGLGYYSRGRRLQEGARKVVEELGGHMPRTAETLQQLLPGVGRYTAGAIASIAFGQATGVVDGNVARVLCRVRAIGADPSSTLVSQQLWGLAQQLVDPARPGDFNQAAMELGATVCTPQRPLCSQCPVESLCRARQRVEQEQLLASGSLSGSPDVEECAPNTGQCHLCLPPSEPWDQTLGVVNFPRKASRKPPREESSATCVLEQPGALGAQILLVQRPNSGLLAGLWEFPSVTWEPSEQLQRKALLQELQRWAGPLPATHLRHLGEVVHTFSHIKLTYQVYGLALEGQTPVTTVPPGARWLTQEEFHTAAVSTAMKKVFRVYQGQQPGTCMGSKRSQVSSPCSRKKPRMGQQVLDNFFRSHISTDAHSLNSAAQ

Variants of: B1
Assay: 8OG:A repair function score (normalized; synonymous = 0, nonsense = -1) (normalized log-likelihood score); higher = more repair activity (WT-like)
Conditions: with 8OG:A DNA repair reporter (GFP) in HEK-293 MUTYH KO cells
Procedure: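 Saturation mutagenesis (NNN codon scan) of the MUTYH cDNA (521-aa nuclear isoform NM_001048174.1 / NP_001041639), stably expressed under doxycycline induction in HEK-293 MUTYH knockout cells. Cells were co-transfected with an 8OG:A-bearing GFP repair reporter plus mCherry and sorted 72 h later into GFP+ and GFP− bins, three replicates per tile. The Rosace log2 enrichment (GFP+ vs GFP−) was converted per tile to a normalized function score with synonymous variants centered at 0 and nonsense variants (codons 1-471) at -1; low-abundance variants were removed.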

| Variant | 8OG:A repair function score |
| --- | --- |
| S367P | -0.0154 |
| S367M | 0.226 |
| L145R | -0.0437 |
| R266S | -0.0823 |
| F330G | -0.999 |
| F330E | -0.809 |
| I198E | -0.552 |
| S318P | -0.26 |
| K464D | -0.393 |
| A41M | -0.0227 |
| V362D | -0.671 |
| V362W | -0.624 |
| I195C | -0.59 |
| I195E | -1.06 |
| V53E | 0.00193 |
| V53W | -0.276 |
| V53A | 0.00104 |
| V62P | 0.00101 |
| E433V | -0.164 |
| E433S | 0.0139 |
| T66Q | 0.00332 |

| Variant | 8OG:A repair function score |
| --- | --- |
| T112Q | -0.591 |
| L403I | 0.0162 |
| L361S | -0.625 |
| L361M | 0.0584 |
| Q521W | 0.00491 |
| Q521R | -0.0139 |
| Q521L | -0.0455 |
| A194D | -1.03 |
| A194C | -0.313 |
| A253M | -1.03 |
| A253N | -1.01 |
| E46T | 0.134 |
| L355K | -0.0816 |
| Q386Y | 0.41 |
| L40P | 0.00594 |
| K127D | -1.32 |
| K127V | -0.306 |
| P264E | -0.25 |
| Q498F | -0.0629 |
| L268R | 0.00479 |
| P84D | -0.332 |

| Variant | 8OG:A repair function score |
| --- | --- |
| V166D | -0.293 |
| Q265L | -0.0663 |
| Q110V | 0.0461 |
| L134H | -0.607 |
| L134T | -0.714 |
| I359S | -0.465 |
| I359C | -0.249 |
| Q240I | -0.959 |
| Q240M | -0.867 |
| A400N | -0.913 |
| D61A | -0.0921 |
| D61S | -0.013 |
| Y76K | -1.41 |
| L290R | 0.0252 |
| L183W | -0.0703 |
| L183C | -0.208 |
| Q159S | -0.121 |
| Y428I | -1.03 |
| E178A | 0.0541 |
| E178L | -0.106 |
| D502Q | -0.0749 |

| Variant | 8OG:A repair function score |
| --- | --- |
| S486H | 0.026 |
| S486G | 0.0224 |
| Q282A | -0.0281 |
| Q282V | -0.0489 |
| T449I | -0.282 |
| T449A | 0.0699 |
| F59C | -0.367 |
| A220S | -0.411 |
| A220H | -0.555 |
| G70Q | -0.528 |
| G258M | -1.19 |
| G258W | -1.49 |
| R42T | -0.0609 |
| R42I | -0.00552 |
| F250A | -0.516 |
| Y190K | -1.27 |
| T380P | -0.128 |
| L411T | -0.469 |
| R491D | 0.0052 |
| R491S | 0.00574 |
